Data as given in article PMC6587167.

Columns and labels:
[1] = western blot, S2VP10 and L3.6PL; details: glycan lost; control: untreated cells
[2] = dual luciferase Sox2 reporter; details: glycan lost; control: untreated / control siRNA / scrambled control
[3] = cycloheximide chase, western blot, endogenous Sox2; details: glycan lost; control: untreated / scrambled control S2VP10
western blot, MIA-PACA2 = details: glycan lost; control: wild-type Sox2 overexpression

Substance | expression_or_secretion [1] | other: transcriptional activity [2] | degradation_or_half_life [3] | expression_or_secretion (western blot, MIA-PACA2)
SOX2: OSMI | decreases | decreases | decreases | 
SOX2: S246A |  |  |  | decreases
SOX2: siOGT |  | decreases |  | 
